Measured values published in patent publication US20160297884A1 (Pfizer, published 2016).

T1: Human BCMA (human, UniProt Q02223 1-54, limits assumed)
T1 construct: Soluble analyte in SPR; construct not described; also called huBCMA; B-cell maturation antigen
T1 sequence (looked up): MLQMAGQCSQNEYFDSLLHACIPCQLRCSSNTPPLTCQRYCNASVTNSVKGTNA


Experiments:
Human BCMA = target: T1, Human BCMA; assay: SPR, IgG immobilised, 25 C
Description: (§1) All experiments were performed on a Bio-Rad Proteon XPR36 surface Plasmon resonance biosensor (Bio-Rad, Hercules, Calif.). […] The analysis temperature for the immobilization was 25° C. and the running buffer was HBS-T+(10 mM HEPES, 150 mM NaCl, 0.05% Tween-20, pH 7.4). Channels were activated in the analyte (horizontal) direction by injecting a mixture of 1 mM ECD and 0.25 mM NHS for 3 minutes at a flow rate of 30 μL/min. IgGs were immobilized on the activated spots by injecting them in the ligand (vertical) direction at 20 μg/mL in 10 mM Acetate pH 4.5 buffer for 1.5 minutes at […]. The activated surfaces were blocked by injecting 1M ethanolamine, pH 8.5 in the analyte direction for 3 minutes at 30 μL/min.
(§2) The analysis temperature for the BCMA binding analysis was 37° C. or 25° C. in a running buffer of HBS-T+, supplemented with 1 mg/mL BSA. A kinetic titration method was employed for the interaction analysis as described in Abdiche, et al. Human BCMA (huBCMA) or cynomolgus monkey BCMA (cyBCMA) analyte was injected in the analyte direction using a series of injections from low to high concentration. The concentrations used were 0.08 nM, 0.4 nM, 2 nM, 10 nM and 50 nM (a 5-membered series, with a 5-fold dilution factor and top concentration of 50 nM). The association time for a given analyte dilution was two minutes. Immediately after the 50 nM BCMA injection, dissociation was monitored for 2 hours.
(§3) The sensorgrams were double-referenced and fit to a 1:1 Langmuir with mass transport kinetic titration model in BIAevaluation Software version 4.1.1 (GE Lifesciences, Piscataway, N.J.).

cynomolgus monkey BCMA = target: T2, cynomolgus monkey BCMA (cynomolgus monkey, UniProt A0A2K5UD97 1-53); assay: SPR, IgG immobilised, 25 C
T2 construct: Soluble analyte in SPR; construct not described; also called cyBCMA; Cyno BCMA
T2 sequence (A0A2K5UD97 entry or part of it): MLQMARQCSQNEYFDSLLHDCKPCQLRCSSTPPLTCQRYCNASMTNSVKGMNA
Description: as §1, §2, §3

| Binder | Kd (Human BCMA) [nM] | T ½ (Human BCMA) [min] | koff (Human BCMA) [s⁻¹] | kon (Human BCMA) [M⁻¹ s⁻¹] | Kd (cynomolgus monkey BCMA) [nM] | T ½ (cynomolgus monkey BCMA) [min] | koff (cynomolgus monkey BCMA) [s⁻¹] | kon (cynomolgus monkey BCMA) [M⁻¹ s⁻¹] |
| --- | --- | --- | --- | --- | --- | --- | --- | --- |
| L1.LGF/L3.KW/P6E01 (antibody, V domains shown, IgG) VH: EVQLLESGGGLVQPGGSLRLSCAASGFTFGSYAMTWVRQAPGKGLEWVSAISGSGGNTFYADSVKGRFTISRDNSKNTLYLQMNSLRAEDTAVYYCARVSPIASGMDYWGQGTLVTVSS VL: EIVLTQSPGTLSLSPGERATLSCRASQSLGSFYLAWYQQKPGQAPRLLIYGASSRATGIPDRFSGSGSGTDFTLTISRLEPEDFAVYYCKHYGWPPSFTFGQGTKVEIK | 9.08 | 1.53 | 0.00755 | 831000 | 42.8 | 0.6 | 0.0195 | 455000 |
| L1.LGF/L3.PY/H3.AP (antibody, V domains shown, IgG) VH: EVQLLESGGGLVQPGGSLRLSCAASGFTFGSYAMTWVRQAPGKGLEWVSAISGSGGNTFYADSVKGRFTISRDNSKNTLYLQMNSLRAEDTAVYYCARVSPIAAPMDYWGQGTLVTVSS VL: EIVLTQSPGTLSLSPGERATLSCRASQSLGSFYLAWYQQKPGQAPRLLIYGASSRATGIPDRFSGSGSGTDFTLTISRLEPEDFAVYYCQHYPYPPSFTFGQGTKVEIK | 2.12 | 11.9 | 0.000969 | 457000 | 35.8 | 0.9 | 0.013 | 364000 |
| L1.LGF/L3.NY/H3.AL (antibody, V domains shown, IgG) VH: EVQLLESGGGLVQPGGSLRLSCAASGFTFGSYAMTWVRQAPGKGLEWVSAISGSGGNTFYADSVKGRFTISRDNSKNTLYLQMNSLRAEDTAVYYCARVSPIAALMDYWGQGTLVTVSS VL: EIVLTQSPGTLSLSPGERATLSCRASQSLGSFYLAWYQQKPGQAPRLLIYGASSRATGIPDRFSGSGSGTDFTLTISRLEPEDFAVYYCQHYNYPPSFTFGQGTKVEIK | 1.27 | 11.9 | 0.00097 | 763000 | 23.2 | 0.8 | 0.0148 | 635000 |
| L1.LGF/L3.NY/P6E01 (antibody, V domains shown, IgG) VH: EVQLLESGGGLVQPGGSLRLSCAASGFTFGSYAMTWVRQAPGKGLEWVSAISGSGGNTFYADSVKGRFTISRDNSKNTLYLQMNSLRAEDTAVYYCARVSPIASGMDYWGQGTLVTVSS VL: EIVLTQSPGTLSLSPGERATLSCRASQSLGSFYLAWYQQKPGQAPRLLIYGASSRATGIPDRFSGSGSGTDFTLTISRLEPEDFAVYYCQHYNYPPSFTFGQGTKVEIK | 3.32 | 2.63 | 0.0044 | 1.33e+06 | 11.4 | 1.1 | 0.0105 | 920000 |
| L1.LGF/L3.NY/H3.AP (antibody, V domains shown, IgG) VH: EVQLLESGGGLVQPGGSLRLSCAASGFTFGSYAMTWVRQAPGKGLEWVSAISGSGGNTFYADSVKGRFTISRDNSKNTLYLQMNSLRAEDTAVYYCARVSPIAAPMDYWGQGTLVTVSS VL: EIVLTQSPGTLSLSPGERATLSCRASQSLGSFYLAWYQQKPGQAPRLLIYGASSRATGIPDRFSGSGSGTDFTLTISRLEPEDFAVYYCQHYNYPPSFTFGQGTKVEIK | 0.57 | 21.7 | 0.000533 | 936000 | 6.7 | 2.1 | 0.00557 | 830000 |
| L1.LGF/L3.NY/H3.AQ (antibody, V domains shown, IgG) VH: EVQLLESGGGLVQPGGSLRLSCAASGFTFGSYAMTWVRQAPGKGLEWVSAISGSGGNTFYADSVKGRFTISRDNSKNTLYLQMNSLRAEDTAVYYCARVSPIAAQMDYWGQGTLVTVSS VL: EIVLTQSPGTLSLSPGERATLSCRASQSLGSFYLAWYQQKPGQAPRLLIYGASSRATGIPDRFSGSGSGTDFTLTISRLEPEDFAVYYCQHYNYPPSFTFGQGTKVEIK | 0.45 | 38.6 | 0.000299 | 666000 | 2 | 7.8 | 0.00148 | 751000 |
